Test results: patent US20030148973A1, “MAGE-A1 peptides for treating or preventing cancer” (priority 2001, published 2003)

Molecular target: T1, HLA-A0201 molecules on T2 cells (Homo sapiens, UniProt P04439, D140Y/D185E/D98H/E176V/E277Q/G131W/G231S/I119V/I121R/I166T/I218V/L300P/L318F/N151K/N90K/P208A/P217A/Q86G/Q94H/R138H/R169H/T345S)
T1 construct: endogenous in cells; host or cells: T2 cell line (from Dr. Peter Creswell, Yale University)
Assay: Binding and stabilization of surface HLA-A0201 on T2 cells (BB7.2 antibody, flow cytometry)
Conditions: 20 μg peptide pulsed onto 10^6 denatured T2 cells, 4 hours at 26° C.; BB7.2 binding detected with FITC conjugate
Method: The ability of the MAGE-A1 derived peptides to be presented in the context of HLA-A2 was determined by the ability of such peptides stabilize membrane-bound HLA-A0201 molecules The T2 cell line (Dr. Peter Creswell, Yale University) has been well documented to have a defective TAP (e.g. Transporter for Antigen Processing) transporter function. As a result, the majority of intracellularly generated peptides are not transported into the endoplasmic reticulum and thus are unable to associate with newly synthesized HLA class 1 MHC molecules (e.g. HLA-A0201; Salter, R D and Creswell, P. (1986) EMBO J 5:943). […] The stability of the surface HLA-A0201 molecules can be restored upon interaction with suitable exogenous peptides. […]
In order to determine whether the identified nonapeptides can be presented by HLA-A0201, T2 cells were propagated in RPMI complete medium (RPMI medium supplemented with 10% heat-inactivated bovine serum, 120.0 units per ml of penicillin G sodium, 120 μg per ml of streptomycin sulphate, and 0.35 mg per ml of L-glutamine). The ability of MAGE-A1 derived peptides to bind and stabilize surface HLA-A0201 molecules on T2 cells was determined utilizing a standard protocol (Deng, Y. (1997) J Immunol 158:1507-1515). […] The binding of BB7.2 was detected via the addition of 1.0 μg per test of goat anti-mouse IgG-Fc fluorescein (FITC) conjugate (BETHYL Laboratories Inc). […]

Fluorescence Index (FI): 1.73
Sequence: CLGLSYDGL (listed as Homo sapiens) [MAGE-A1 174]
